# Target: T1, endothelial protein C receptor (UniProt Q9UNN8)
# T1 sequence: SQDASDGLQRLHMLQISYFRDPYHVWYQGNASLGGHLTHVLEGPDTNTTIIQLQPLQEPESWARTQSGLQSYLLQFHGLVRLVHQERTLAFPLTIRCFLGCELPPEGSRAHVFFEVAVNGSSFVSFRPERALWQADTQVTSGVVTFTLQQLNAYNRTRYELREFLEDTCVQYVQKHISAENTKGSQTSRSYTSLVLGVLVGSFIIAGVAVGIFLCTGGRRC
substance,measurement,value
Activated protein C,LPS-induced NF-κB activity (western blot for the active form of NF-κB in lysates of RA monocytes),"APC's inhibitory effect on LPS-induced NF-κB activity was almost totally reversed by RCR252, whereas RCR92 had only limited effect"
